In US12072338B2, “Pharmaceutical peptides for the treatment of inflammatory diseases” (PROTAGONISTS LTD., priority 2007, dated 2024):

Key:
[1] = biological target: T1, Exodus-2 (Homo sapiens, UniProt O00585); test: Micro-array analysis of chemokine binding peptides: Exodus-2
T1 construct: purchased 300-35
T1 sequence (O00585 24-134): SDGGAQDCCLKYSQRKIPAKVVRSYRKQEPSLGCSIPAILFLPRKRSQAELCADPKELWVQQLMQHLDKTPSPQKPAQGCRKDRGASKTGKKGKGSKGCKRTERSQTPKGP
In short: (§1)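 Phage-presented peptides (10^7 pfu/μl in wash buffer) were incubated 1 h at room temperature on blocked slides carrying chemokine spots at 25 or 50 μg/ml. After anti-M13 and Cy3-labelled secondary antibody staining, slides were laser-scanned and spot fluorescence quantified as relative binding.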

[2] = biological target: T2, SDF1-α (Homo sapiens, UniProt P48061); test: Micro-array analysis of chemokine binding peptides: SDF1-α
T2 construct: purchased 300-28a
T2 sequence (P48061 22-89 limits assumed): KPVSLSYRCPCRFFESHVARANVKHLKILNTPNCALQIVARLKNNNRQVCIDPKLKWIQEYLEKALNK
In short: as §1

[3] = biological target: T3, C-TAC (Homo sapiens, UniProt Q9Y4X3); test: Micro-array analysis of chemokine binding peptides: C-TAC
T3 construct: purchased 300-54
T3 sequence (Q9Y4X3 25-112): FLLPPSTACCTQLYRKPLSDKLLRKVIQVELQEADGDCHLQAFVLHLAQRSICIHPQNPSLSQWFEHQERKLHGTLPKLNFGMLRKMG
Description: (1) Printing: Chemokine (CK) solution (in water) was serially diluted with Print Reagent (GenTel BioSurfaces USA) to final concentrations of 50 μg and 25 μg/ml. BSA/BSA-Biotin control solutions (in water) were diluted with Print Reagent to 100 μg/ml. Amplified stock of M13 phage control (M13KEgIII Cloning Vector, New England Biolabs, Cat.No.E8101S) was stored in Tris Buffered Saline (TBS; pH7.5, 4° C.) and diluted with Print Reagent to the working titre (10^8 pfu/μl). An automated spotting robot (16 pin print tool, 0.4 mm head; BioRobotics, UK) was used to print the CK/BSA control/M13 control, 5 repeats per sample (CK 25 μg/ml and 50 μg/ml; BSA 100 μg/ml; M13 20 μl), on PATH Protein Microarray Slides (GenTel, Prod.No. 2-1005/-1025) at […], and 50-70% relative humidity. Printed micro-array slides were stored at Room Temperature (RT) or 4° C. for at least 24 h before use.
(2) Blocking: Block Buffer (500 μl/partition; PATHblock, GenTel, Prod.No. 2-1014) was applied to the slide for 1 hour at room temp (RT). After removal of Block Buffer, the slide was air dried for 25 minutes;
(3) Phage Presented Peptide Binding: Amplified recombinant phage stock was stored in TBS and diluted with Wash Buffer to working titer (10^7 pfu/μl). Recombinant phage suspension (300 μl) was applied per partition and incubated at RT for 1 hour with gentle agitation.
(4) First Washing: The slides were washed twice with Wash Buffer 300 μl/partition).
(5) Primary Antibody (Ab) Labeling: The slides were incubated with the Primary Ab (1 mg/ml diluted ×2500 (Wash Reagent), 300 μl; Mouse Anti-M13 monoclonal Ab; Amersham Biosciences, UK; Product Code 27-9420-01) for 45 minutes at RT. […]
(11) Analysis: Quantitative analysis of micro-array was performed by the SpotReader program of Niles Scientific (USA) and presented as Relative Fluorescence (RF) as a function of CK concentration. Micro-array readout (Cy3 fluorescence) was quantified to determine the relative binding affinities of a CBP for the CKs and by inference, the specificity of the CBP for binding to a CK.

[4] = biological target: T4, Eotaxin 2 (Homo sapiens, UniProt O00175); test: Micro-array analysis of chemokine binding peptides: Eotaxin 2
T4 construct: purchased 300-33
T4 sequence (O00175 27-119): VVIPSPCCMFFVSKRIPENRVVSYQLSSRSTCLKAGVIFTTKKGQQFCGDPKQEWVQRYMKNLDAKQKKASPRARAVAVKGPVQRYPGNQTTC
In short: as §1

[5] = biological target: T5, Lymphotactin (Homo sapiens, UniProt P47992); test: Micro-array analysis of chemokine binding peptides: Lymphotactin
T5 construct: purchased 300-20
T5 sequence (P47992 22-114): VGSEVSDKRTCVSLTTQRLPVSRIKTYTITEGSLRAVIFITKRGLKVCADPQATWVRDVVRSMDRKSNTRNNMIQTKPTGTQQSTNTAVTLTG
In short: as §1

[6] = biological target: T6, Eotaxin (Homo sapiens, UniProt P51671); test: Micro-array analysis of chemokine binding peptides: Eotaxin
T6 construct: purchased 300-21
T6 sequence (P51671 24-97): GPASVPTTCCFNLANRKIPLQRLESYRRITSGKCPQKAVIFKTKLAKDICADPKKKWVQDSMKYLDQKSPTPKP
In short: as §1

[7] = biological target: T7, Mig (Homo sapiens, UniProt Q07325); test: Micro-array analysis of chemokine binding peptides: Mig
T7 construct: purchased 300-26
T7 sequence (Q07325 23-125): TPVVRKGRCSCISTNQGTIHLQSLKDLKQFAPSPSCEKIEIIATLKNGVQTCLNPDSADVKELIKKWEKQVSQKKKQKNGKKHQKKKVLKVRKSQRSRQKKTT
In short: as §1

[8] = limit = start of the upper 75% of that peptide's response range

DYDYGAPC [Ph-p30]
binding to Exodus-2, stated in words [1]: bound | binding to SDF1-α, stated in words [2]: bound | binding to C-TAC, stated in words [3]: bound | binding to Eotaxin 2 with relatively high affinity (Relative Fluorescence Units) [4, 8]: > 15,000 RFU | binding to Lymphotactin, stated in words [5]: bound | binding to Eotaxin with relatively high affinity (Relative Fluorescence Units) [6, 8]: > 15,000 RFU | binding to Mig with relatively high affinity (Relative Fluorescence Units) [7, 8]: > 15,000 RFU

WVFGAAMCK [Ph-p8.8]
binding to Exodus-2, stated in words [1]: bound | binding to SDF1-α, stated in words [2]: bound | binding to C-TAC, stated in words [3]: bound | binding to Eotaxin 2, stated in words [4]: bound | binding to Lymphotactin, stated in words [5]: bound | binding to Eotaxin, stated in words [6]: bound | binding to Mig, stated in words [7]: bound
